The text below walks through data of publication PMC3589492, “Intersubunit Ionic Interactions Stabilize the Nucleoside Diphosphate Kinase of Mycobacterium tuberculosis” (PLoS ONE, 2013).

The series deals with the molecule itself. As to the kind of experiment: SEC; Superose 12 column, 50 mM Hepes pH 7.4, 150 mM sodium chloride, 0.4 mL/min, calibrated with molecular weight markers. (SEC sorts molecules by how far they enter the pores of the column.)

One may read the stoichiometry N as a count of units in the complex or per binding partner.

B1: D93N mutant of the nucleoside diphosphate kinase of Mycobacterium tuberculosis (enzyme)
chain: MTERTLVLIKPDGIERQLIGEIISRIERKGLTIAALQLRTVSAELASQHYAEHEGKPFFGSLLEFITSGPVVAAIVEGTRAIAAVRQLAGGTNPVQAAAPGTIRGDFALETQFNLVHGSDSAESAQREIALWFPGA
notes: No tag is mentioned; also called D93N Mt-NDPK
Take B1: the “stoichiometry N” value came to 6.
